{
  "source": "patent US7122624",
  "about": "(dated 2006)",
  "key": {"glucagon receptor": {"target": "glucagon receptor (human, UniProt P47871)", "sequence (P47871 26-477)": "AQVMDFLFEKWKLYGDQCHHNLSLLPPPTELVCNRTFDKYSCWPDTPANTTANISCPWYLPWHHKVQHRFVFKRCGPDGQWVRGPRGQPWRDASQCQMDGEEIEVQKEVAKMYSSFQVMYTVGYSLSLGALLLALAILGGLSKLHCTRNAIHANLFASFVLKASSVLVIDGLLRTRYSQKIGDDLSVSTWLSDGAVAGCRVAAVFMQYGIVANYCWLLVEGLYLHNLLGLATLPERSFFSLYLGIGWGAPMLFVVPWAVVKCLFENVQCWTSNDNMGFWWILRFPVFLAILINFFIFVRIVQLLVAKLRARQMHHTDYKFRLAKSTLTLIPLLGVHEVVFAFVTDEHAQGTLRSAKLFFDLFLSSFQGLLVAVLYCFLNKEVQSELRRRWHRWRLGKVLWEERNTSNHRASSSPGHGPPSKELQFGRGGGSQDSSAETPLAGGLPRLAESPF", "assay": "competition, COS-7 cells, up to 1 uM"}, "PTH2 receptor": {"target": "T1, PTH2 receptor (human)", "T1 chain": "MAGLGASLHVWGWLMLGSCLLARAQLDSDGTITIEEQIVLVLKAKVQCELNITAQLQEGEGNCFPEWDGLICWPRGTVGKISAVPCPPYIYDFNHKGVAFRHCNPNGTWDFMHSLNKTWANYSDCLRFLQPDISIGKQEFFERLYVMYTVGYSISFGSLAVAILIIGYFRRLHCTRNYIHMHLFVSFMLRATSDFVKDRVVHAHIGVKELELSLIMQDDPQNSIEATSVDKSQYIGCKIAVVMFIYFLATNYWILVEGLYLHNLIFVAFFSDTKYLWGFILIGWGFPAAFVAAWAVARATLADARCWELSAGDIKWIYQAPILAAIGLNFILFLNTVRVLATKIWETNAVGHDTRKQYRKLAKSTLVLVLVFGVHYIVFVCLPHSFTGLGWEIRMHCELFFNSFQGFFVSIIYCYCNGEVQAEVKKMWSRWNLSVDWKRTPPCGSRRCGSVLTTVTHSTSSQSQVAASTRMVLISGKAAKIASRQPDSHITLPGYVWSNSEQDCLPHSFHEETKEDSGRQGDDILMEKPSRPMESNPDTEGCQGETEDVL", "assay": "competition, [125I]TIP39, 10 uM GTPgS, HEK293 membranes"}, "PTH1 receptor [1]": {"target": "T2, PTH1 receptor (human, UniProt Q03431)", "T2 chain": "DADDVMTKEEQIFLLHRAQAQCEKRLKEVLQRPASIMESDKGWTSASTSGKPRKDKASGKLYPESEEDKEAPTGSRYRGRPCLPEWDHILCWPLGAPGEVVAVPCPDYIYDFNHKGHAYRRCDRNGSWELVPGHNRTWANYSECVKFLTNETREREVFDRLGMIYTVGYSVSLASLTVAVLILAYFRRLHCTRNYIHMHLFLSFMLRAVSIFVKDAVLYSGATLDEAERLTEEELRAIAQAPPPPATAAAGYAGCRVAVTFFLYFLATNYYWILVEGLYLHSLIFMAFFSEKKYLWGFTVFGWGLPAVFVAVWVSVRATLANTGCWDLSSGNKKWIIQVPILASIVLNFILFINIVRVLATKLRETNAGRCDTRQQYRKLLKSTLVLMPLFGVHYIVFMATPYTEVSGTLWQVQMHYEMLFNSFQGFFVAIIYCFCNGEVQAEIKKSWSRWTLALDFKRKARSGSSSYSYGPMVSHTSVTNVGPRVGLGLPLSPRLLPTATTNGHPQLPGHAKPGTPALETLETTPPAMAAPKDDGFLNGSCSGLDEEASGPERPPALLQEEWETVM", "assay": "competition, [125I]rPTH(1-34), 10 uM GTPgS, HEK293 membranes"}, "PTH1 receptor [2]": {"target": "T2, PTH1 receptor", "assay": "other, radioligand kinetics, HEK293 membranes, 21C"}, "PTH1 receptor [3]": {"target": "T2, PTH1 receptor", "assay": "other, radioligand saturation, HEK293 membranes, 21C"}},
  "note": "No end group written: not given here.",
  "data": [
    {"binder": "SLALADDAAFRERARLLAALERRHWLNSYMHKLLVLDAP", "note": "[TIP39]", "values": [
      {"measurement": "binding result", "setting": "glucagon receptor", "result": "no binding"}
    ]},
    {"binder": "DAAFRERARLLAALERRHWLNSYMHKLLVLDAP", "note": "[TIP(7-39)]", "values": [
      {"measurement": "IC50", "setting": "PTH2 receptor", "result": 98, "unit": "nM"},
      {"measurement": "IC50", "setting": "PTH1 receptor [1]", "result": 5, "unit": "nM"}
    ]},
    {"binder": "DAAFRERARLLAALERRHWLNSYMHKLLVLDAP (also: 125I label, site not given here)", "note": "[[125I]TIP(7-39)]", "values": [
      {"measurement": "Kd", "setting": "PTH1 receptor [2]", "result": 0.57, "unit": "nM"},
      {"measurement": "Kd", "setting": "PTH1 receptor [3]", "result": 1.3, "unit": "nM"}
    ]}
  ]
}
